The record followed here is patent publication EP4684807A1, “LINKER AND USE THEREOF IN LIGAND DRUG CONJUGATE” (priority 2023, dated 2024).

For the test, the target named is T1, ADAM9 on ADAM9-positive cells (Calu-3, Ls174T) (UniProt Q13443 29-819, limits assumed).
T1 sequence (looked up): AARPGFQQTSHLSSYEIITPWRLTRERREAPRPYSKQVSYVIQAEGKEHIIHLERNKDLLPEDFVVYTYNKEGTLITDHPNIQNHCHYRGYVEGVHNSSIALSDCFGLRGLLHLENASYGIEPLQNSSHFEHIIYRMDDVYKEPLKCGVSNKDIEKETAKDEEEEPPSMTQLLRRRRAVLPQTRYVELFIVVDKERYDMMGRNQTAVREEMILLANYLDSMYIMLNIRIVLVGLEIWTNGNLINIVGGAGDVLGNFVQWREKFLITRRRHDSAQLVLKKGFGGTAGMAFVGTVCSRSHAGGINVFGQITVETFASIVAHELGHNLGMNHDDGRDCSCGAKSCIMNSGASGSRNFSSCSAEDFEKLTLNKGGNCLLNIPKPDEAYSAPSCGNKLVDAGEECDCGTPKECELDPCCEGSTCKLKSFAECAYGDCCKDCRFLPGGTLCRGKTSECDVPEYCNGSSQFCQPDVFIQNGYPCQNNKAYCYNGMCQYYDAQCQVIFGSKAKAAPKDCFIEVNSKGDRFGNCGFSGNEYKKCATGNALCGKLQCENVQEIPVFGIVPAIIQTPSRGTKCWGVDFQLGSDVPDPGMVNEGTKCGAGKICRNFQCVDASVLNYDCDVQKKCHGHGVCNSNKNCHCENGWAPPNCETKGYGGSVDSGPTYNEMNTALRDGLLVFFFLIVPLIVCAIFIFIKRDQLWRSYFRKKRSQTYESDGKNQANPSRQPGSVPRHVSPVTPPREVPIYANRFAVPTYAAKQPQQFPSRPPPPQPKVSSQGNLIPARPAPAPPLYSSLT
Description: cell-based or functional assay.

B1: ADC-3D-1 (Reference ADC-22C) (antibody, human IgG1, kappa, V domains shown)
VH: QVQLQQPGTEVVKPGASVKLSCKASGFTFPLYWMHWVRQRPGRGLEWIGRIIPIFGHTKYNEKFKNKATLTADESSSTAYMELRSLTSDDSAVYYCARGGYYYYPREGFLDYWGQGTSVTVSS
VL: DIVMTQSPASLSVSPGERASISCRSSQSVDYSGDSYMNWYQQKPGQSPRLLIYAASDRESGVPDRFSGSGSGTDFTLKISRVEEEDAGTYYCQQSREDPFTFGQGTKVDIKR
modifications: control linker-payload conjugated to antibody thiols after TCEP reduction; DAR (k) 7.5 for the whole antibody
For B1, the “IC50 (nM), inhibition of cell proliferation, Calu-3 cells, CellTiter-Glo, 6 days” value was determined as 0.34 nM.

B2: ADC-1D-1 (Reference ADC-20C) (antibody, human IgG1, kappa, V domains shown)
VH: QVQLQQPGTEVVKPGASVKLSCKASGFTFPLYWMHWVRQRPGRGLEWIGRIIPIFGHTKYNEKFKNKATLTADESSSTAYMELRSLTSDDSAVYYCARGGYYYYPREGFLDYWGQGTSVTVSS
VL: DIVMTQSPASLSVSPGERASISCRSSQSVDYSGDSYMNWYQQKPGQSPRLLIYAASDRESGVPDRFSGSGSGTDFTLKISRVEEEDAGTYYCQQSREDPFTFGQGTKVDIKR
modifications: control linker-payload conjugated to antibody thiols after TCEP reduction; DAR (k) 4.4 for the whole antibody
With B2, the “IC50 (nM), inhibition of cell proliferation, Ls174T cells, CellTiter-Glo, 6 days” value was found to be 15.3 nM.

B3: ADC-4D-1 (Reference ADC-22C) (antibody, human IgG1, kappa, V domains shown)
VH: QVQLQQPGTEVVKPGASVKLSCKASGFTFPLYWMHWVRQRPGRGLEWIGRIIPIFGHTKYNEKFKNKATLTADESSSTAYMELRSLTSDDSAVYYCARGGYYYYPREGFLDYWGQGTSVTVSS
VL: DIVMTQSPASLSVSPGERASISCRSSQSVDYSGDSYMNWYQQKPGQSPRLLIYAASDRESGVPDRFSGSGSGTDFTLKISRVEEEDAGTYYCQQSREDPFTFGQGTKVDIKR
modifications: control linker-payload conjugated to antibody thiols after TCEP reduction; DAR (k) 7.6 for the whole antibody
Regarding B3, the “IC50 (nM), inhibition of cell proliferation, Calu-3 cells, CellTiter-Glo, 6 days” value was 0.78 nM.

B4: ADC-2D-1 (Reference ADC-20C) (antibody, human IgG1, kappa, V domains shown)
VH: QVQLQQPGTEVVKPGASVKLSCKASGFTFPLYWMHWVRQRPGRGLEWIGRIIPIFGHTKYNEKFKNKATLTADESSSTAYMELRSLTSDDSAVYYCARGGYYYYPREGFLDYWGQGTSVTVSS
VL: DIVMTQSPASLSVSPGERASISCRSSQSVDYSGDSYMNWYQQKPGQSPRLLIYAASDRESGVPDRFSGSGSGTDFTLKISRVEEEDAGTYYCQQSREDPFTFGQGTKVDIKR
modifications: control linker-payload conjugated to antibody thiols after TCEP reduction; DAR (k) 4.3 for the whole antibody
Turning to B4, the “IC50 (nM), inhibition of cell proliferation, Ls174T cells, CellTiter-Glo, 6 days” value was found to be 27.1 nM.
